Measurements published in PMC10602137 (2023).

How the values were obtained:
[1] = biological target: T1, GAD65 peptide on HLA-DRA*01:01 / HLA-DRB1*04:01 (human); experiment: proliferation
T1 peptide: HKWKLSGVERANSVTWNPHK

[2] = biological target: T2, influenza M protein (Influenza A MP54; also given MP74) peptide on HLA-DRA*01:01 / HLA-DRB1*04:01 (human); experiment: proliferation
T2 peptide: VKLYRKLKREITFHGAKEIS

B1: P196-1 (TCR)
alpha TRAV29DV5 TRAJ45 CDR3: CAASRYSGGGADGLTF
beta TRBV12-4 TRBJ1-1 CDR3: CASSLQGGNTEAFF
Q: Does B1 bind [1]?
A: recognises

Q: Does B1 bind [2]?
A: recognises

B2: Clone_81 (TCR)
alpha TRAV29DV5 TRAJ45 CDR3: CAASRYSGGGADGLTF
beta TRBV12-4 TRBJ1-1 CDR3: CASSPQGGNTEAFF
Q: Does B2 bind [1]?
A: recognises

Q: Does B2 bind [2]?
A: recognises

B3: Clone_566 (TCR)
alpha TRAV29DV5 TRAJ45 CDR3: CAASRYSGGGADGLTF
beta TRBV12-4 TRBJ1-1 CDR3: CASSVQGGNTEAFF
Q: Does B3 bind [1]?
A: recognises

Q: Does B3 bind [2]?
A: recognises
